Experimental data from the supplement of paper PMC9112550, “Optimization of the antimicrobial peptide Bac7 by deep mutational scanning” (BMC Biology, 2022).
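Also: peptides expressed intracellularly from a pBAD plasmid library in pooled LB shake-flask culture, induced with 0.3% L-arabinose, DNA abundance read by NGS, three biological replicates, DESeq2 with apeglm shrinkage.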

The sequences below were run on Escherichia coli TOP10 (assay: shrunken log2 fold change of peptide-encoding DNA abundance (4.5 h post-induction vs induction); higher = less antimicrobial activity (less host growth inhibition)). Details: time post-induction: 4.5 h; library: site-saturation at positions 5, 18, 19, 20.
With RRIRWRPPRLPRPRPRPGQAPRP the “shrunken log2 fold change” value was 1.06. In the case of RRIRWRPPRLPRPRPRPGQWPRP, the “shrunken log2 fold change” value is reported as 0.032. In the case of RRIRWRPPRLPRPRPRPGRDPRP, the “shrunken log2 fold change” value is reported as 0.122. For RRIRWRPPRLPRPRPRPGRNPRP, the “shrunken log2 fold change” value was -0.000528. In the case of RRIRWRPPRLPRPRPRPGSYPRP, the “shrunken log2 fold change” value is reported as -0.0955. In the case of RRIRWRPPRLPRPRPRPGTCPRP, the “shrunken log2 fold change” value is reported as 0.0934. RRIRWRPPRLPRPRPRPGTNPRP was tested, and the “shrunken log2 fold change” value was 0.243. With RRIRWRPPRLPRPRPRPGVDPRP the “shrunken log2 fold change” value was 0.371. RRIRWRPPRLPRPRPRPGVHPRP was tested, and the “shrunken log2 fold change” value was 0.135. In the case of RRIRWRPPRLPRPRPRPGWMPRP, the “shrunken log2 fold change” value is reported as 0.366. With RRIRWRPPRLPRPRPRPGYHPRP the “shrunken log2 fold change” value was -0.263. RRIRWRPPRLPRPRPRPGYLPRP was tested, and the “shrunken log2 fold change” value was 0.0065. For RRIRWRPPRLPRPRPRPGYPPRP, the “shrunken log2 fold change” value was -0.251. RRIRWRPPRLPRPRPRPHCKPRP was tested, and the “shrunken log2 fold change” value was -0.233. In the case of RRIRWRPPRLPRPRPRPHCQPRP, the “shrunken log2 fold change” value is reported as -0.102. RRIRWRPPRLPRPRPRPHEWPRP was tested, and the “shrunken log2 fold change” value was 0.0987. With RRIRWRPPRLPRPRPRPHFLPRP the “shrunken log2 fold change” value was 1.46. For RRIRWRPPRLPRPRPRPHFVPRP, the “shrunken log2 fold change” value was -0.438. RRIRWRPPRLPRPRPRPHGEPRP was tested, and the “shrunken log2 fold change” value was 0.135. RRIRWRPPRLPRPRPRPHHLPRP was tested, and the “shrunken log2 fold change” value was -0.71. For RRIRWRPPRLPRPRPRPHIDPRP, the “shrunken log2 fold change” value was -0.466. In the case of RRIRWRPPRLPRPRPRPHKVPRP, the “shrunken log2 fold change” value is reported as -0.431. For RRIRWRPPRLPRPRPRPHLLPRP, the “shrunken log2 fold change” value was -0.66. With RRIRWRPPRLPRPRPRPHMDPRP the “shrunken log2 fold change” value was -0.18. For RRIRWRPPRLPRPRPRPHMQPRP, the “shrunken log2 fold change” value was -0.0363. RRIRWRPPRLPRPRPRPHMWPRP was tested, and the “shrunken log2 fold change” value was -0.138. For RRIRWRPPRLPRPRPRPHNDPRP, the “shrunken log2 fold change” value was -0.324. For RRIRWRPPRLPRPRPRPHPGPRP, the “shrunken log2 fold change” value was -0.0288. With RRIRWRPPRLPRPRPRPHQDPRP the “shrunken log2 fold change” value was 0.134. For RRIRWRPPRLPRPRPRPHQMPRP, the “shrunken log2 fold change” value was -0.34. For RRIRWRPPRLPRPRPRPHREPRP, the “shrunken log2 fold change” value was -0.0345. With RRIRWRPPRLPRPRPRPHTKPRP the “shrunken log2 fold change” value was 0.0624. In the case of RRIRWRPPRLPRPRPRPHTPPRP, the “shrunken log2 fold change” value is reported as 0.0133. For RRIRWRPPRLPRPRPRPHVKPRP, the “shrunken log2 fold change” value was -0.439. For RRIRWRPPRLPRPRPRPICHPRP, the “shrunken log2 fold change” value was -0.0597. RRIRWRPPRLPRPRPRPIDNPRP was tested, and the “shrunken log2 fold change” value was -0.406. With RRIRWRPPRLPRPRPRPIFTPRP the “shrunken log2 fold change” value was -0.173. RRIRWRPPRLPRPRPRPIGFPRP was tested, and the “shrunken log2 fold change” value was 0.0993. For RRIRWRPPRLPRPRPRPIGGPRP, the “shrunken log2 fold change” value was -0.0334. In the case of RRIRWRPPRLPRPRPRPIIEPRP, the “shrunken log2 fold change” value is reported as -0.273. With RRIRWRPPRLPRPRPRPIKDPRP the “shrunken log2 fold change” value was 0.211. In the case of RRIRWRPPRLPRPRPRPIKNPRP, the “shrunken log2 fold change” value is reported as 0.136. In the case of RRIRWRPPRLPRPRPRPIMCPRP, the “shrunken log2 fold change” value is reported as -0.0807. RRIRWRPPRLPRPRPRPINWPRP was tested, and the “shrunken log2 fold change” value was 0.0481. In the case of RRIRWRPPRLPRPRPRPIPIPRP, the “shrunken log2 fold change” value is reported as -0.12. With RRIRWRPPRLPRPRPRPIPKPRP the “shrunken log2 fold change” value was 0.102. With RRIRWRPPRLPRPRPRPIQCPRP the “shrunken log2 fold change” value was -0.0122. With RRIRWRPPRLPRPRPRPIQEPRP the “shrunken log2 fold change” value was -0.0126. With RRIRWRPPRLPRPRPRPIRIPRP the “shrunken log2 fold change” value was -0.324. In the case of RRIRWRPPRLPRPRPRPIRWPRP, the “shrunken log2 fold change” value is reported as 0.0855. For RRIRWRPPRLPRPRPRPISMPRP, the “shrunken log2 fold change” value was -0.209. With RRIRWRPPRLPRPRPRPITSPRP the “shrunken log2 fold change” value was -0.122. RRIRWRPPRLPRPRPRPIVRPRP was tested, and the “shrunken log2 fold change” value was 0.326. RRIRWRPPRLPRPRPRPIWWPRP was tested, and the “shrunken log2 fold change” value was 0.314. For RRIRWRPPRLPRPRPRPKASPRP, the “shrunken log2 fold change” value was -0.00939. For RRIRWRPPRLPRPRPRPKCVPRP, the “shrunken log2 fold change” value was -0.0153. For RRIRWRPPRLPRPRPRPKDHPRP, the “shrunken log2 fold change” value was 0.182. With RRIRWRPPRLPRPRPRPKFLPRP the “shrunken log2 fold change” value was -0.0144. RRIRWRPPRLPRPRPRPKHFPRP was tested, and the “shrunken log2 fold change” value was -0.0487. In the case of RRIRWRPPRLPRPRPRPKHIPRP, the “shrunken log2 fold change” value is reported as -0.41. For RRIRWRPPRLPRPRPRPKIFPRP, the “shrunken log2 fold change” value was -0.249. For RRIRWRPPRLPRPRPRPKINPRP, the “shrunken log2 fold change” value was -0.245. With RRIRWRPPRLPRPRPRPKIWPRP the “shrunken log2 fold change” value was 0.272. In the case of RRIRWRPPRLPRPRPRPKLGPRP, the “shrunken log2 fold change” value is reported as 0.0872. For RRIRWRPPRLPRPRPRPKLNPRP, the “shrunken log2 fold change” value was 0.318. For RRIRWRPPRLPRPRPRPKLPPRP, the “shrunken log2 fold change” value was 0.247. With RRIRWRPPRLPRPRPRPKMHPRP the “shrunken log2 fold change” value was 0.386. RRIRWRPPRLPRPRPRPKMPPRP was tested, and the “shrunken log2 fold change” value was 1.71. RRIRWRPPRLPRPRPRPKNNPRP was tested, and the “shrunken log2 fold change” value was -0.136. With RRIRWRPPRLPRPRPRPKPRPRP the “shrunken log2 fold change” value was 0.236. With RRIRWRPPRLPRPRPRPKQNPRP the “shrunken log2 fold change” value was 0.3. With RRIRWRPPRLPRPRPRPKRFPRP the “shrunken log2 fold change” value was 0.729. In the case of RRIRWRPPRLPRPRPRPKRYPRP, the “shrunken log2 fold change” value is reported as 0.0352. With RRIRWRPPRLPRPRPRPKSFPRP the “shrunken log2 fold change” value was 0.0955. RRIRWRPPRLPRPRPRPKVDPRP was tested, and the “shrunken log2 fold change” value was 0.0401. For RRIRWRPPRLPRPRPRPKWMPRP, the “shrunken log2 fold change” value was 0.242. RRIRWRPPRLPRPRPRPLAYPRP was tested, and the “shrunken log2 fold change” value was 0.0203. With RRIRWRPPRLPRPRPRPLCLPRP the “shrunken log2 fold change” value was 0.949. RRIRWRPPRLPRPRPRPLCVPRP was tested, and the “shrunken log2 fold change” value was 0.0447. In the case of RRIRWRPPRLPRPRPRPLEPPRP, the “shrunken log2 fold change” value is reported as 0.676. RRIRWRPPRLPRPRPRPLHGPRP was tested, and the “shrunken log2 fold change” value was 0.131. RRIRWRPPRLPRPRPRPLHQPRP was tested, and the “shrunken log2 fold change” value was 0.0809. For RRIRWRPPRLPRPRPRPLICPRP, the “shrunken log2 fold change” value was 0.803. In the case of RRIRWRPPRLPRPRPRPLIKPRP, the “shrunken log2 fold change” value is reported as 0.114. RRIRWRPPRLPRPRPRPLLNPRP was tested, and the “shrunken log2 fold change” value was 0.00531. In the case of RRIRWRPPRLPRPRPRPLPQPRP, the “shrunken log2 fold change” value is reported as 0.248. For RRIRWRPPRLPRPRPRPLPRPRP, the “shrunken log2 fold change” value was 0.534. With RRIRWRPPRLPRPRPRPLQRPRP the “shrunken log2 fold change” value was 0.189. For RRIRWRPPRLPRPRPRPLRGPRP, the “shrunken log2 fold change” value was 1.01. With RRIRWRPPRLPRPRPRPLSSPRP the “shrunken log2 fold change” value was -0.0482. With RRIRWRPPRLPRPRPRPLVEPRP the “shrunken log2 fold change” value was 0.2. RRIRWRPPRLPRPRPRPLWDPRP was tested, and the “shrunken log2 fold change” value was 0.235. For RRIRWRPPRLPRPRPRPLWFPRP, the “shrunken log2 fold change” value was 0.134. In the case of RRIRWRPPRLPRPRPRPLYIPRP, the “shrunken log2 fold change” value is reported as -0.872. For RRIRWRPPRLPRPRPRPLYWPRP, the “shrunken log2 fold change” value was -0.34. For RRIRWRPPRLPRPRPRPMAAPRP, the “shrunken log2 fold change” value was 0.318. With RRIRWRPPRLPRPRPRPMCAPRP the “shrunken log2 fold change” value was 0.713. For RRIRWRPPRLPRPRPRPMCEPRP, the “shrunken log2 fold change” value was -0.0562. RRIRWRPPRLPRPRPRPMCKPRP was tested, and the “shrunken log2 fold change” value was -0.0527. With RRIRWRPPRLPRPRPRPMDEPRP the “shrunken log2 fold change” value was 0.0255. In the case of RRIRWRPPRLPRPRPRPMDMPRP, the “shrunken log2 fold change” value is reported as -0.0589. With RRIRWRPPRLPRPRPRPMDTPRP the “shrunken log2 fold change” value was 0.128. In the case of RRIRWRPPRLPRPRPRPMEMPRP, the “shrunken log2 fold change” value is reported as 0.0108. In the case of RRIRWRPPRLPRPRPRPMGEPRP, the “shrunken log2 fold change” value is reported as 0.0775. In the case of RRIRWRPPRLPRPRPRPMGNPRP, the “shrunken log2 fold change” value is reported as -0.0828. RRIRWRPPRLPRPRPRPMGRPRP was tested, and the “shrunken log2 fold change” value was -0.012. RRIRWRPPRLPRPRPRPMHKPRP was tested, and the “shrunken log2 fold change” value was 0.219. RRIRWRPPRLPRPRPRPMIAPRP was tested, and the “shrunken log2 fold change” value was 0.00921. RRIRWRPPRLPRPRPRPMIGPRP was tested, and the “shrunken log2 fold change” value was 0.384.
